Measured values taken from PMC8333356 (Nature Communications, 2021).

Target: receptor binding domain (RBD) of SARS-CoV-2 spike (SARS-CoV-2 Wuhan-Hu-1, UniProt P0DTC2)
Assay: cryo-EM structure
Conditions: both partners purified

B1: Nb105 (VHH)
VHH: VQLVESGGGLVQAGGSLRLSCAVSGRTFSTYGMAWFRQAPGKERDFVATITRSGETTLYADSVKGRFTISRDNAKNTVYLQMNSLKIEDTAVYYCAVRRDSSWGYSRDLFEYDYWGQGTQVTVS
notes: Cloned in pET-21b(+); also called class II Nb; source: E. coli BL21 (DE3), purified (cobalt resin, Superdex 75)
binding result: binds

B2: Nb36 (VHH)
VHH: VQLVESGGGLVQAGGSLTLTCAASGRTFSSETMDMGWFRQAPGKEREFVAADSWNDGSTYYADSVKGRFTISRDSAKNTLYLQMNSLKPEDTAVYYCAAETYSIYEKDDSWGYWGQGTQVTVS
notes: Cloned in pET-21b(+); also called class III Nb; source: E. coli BL21 (DE3), purified (cobalt resin, Superdex 75)
binding result: binds
